Substitutions are numbered along the chain they refer to.
T1: 小鼠结合素-4 (mouse Nectin-4) (mouse, UniProt Q8R007 31-508)
T1 construct: Transiently expressed on 293T cells; also called NP_082169.2
T1 sequence: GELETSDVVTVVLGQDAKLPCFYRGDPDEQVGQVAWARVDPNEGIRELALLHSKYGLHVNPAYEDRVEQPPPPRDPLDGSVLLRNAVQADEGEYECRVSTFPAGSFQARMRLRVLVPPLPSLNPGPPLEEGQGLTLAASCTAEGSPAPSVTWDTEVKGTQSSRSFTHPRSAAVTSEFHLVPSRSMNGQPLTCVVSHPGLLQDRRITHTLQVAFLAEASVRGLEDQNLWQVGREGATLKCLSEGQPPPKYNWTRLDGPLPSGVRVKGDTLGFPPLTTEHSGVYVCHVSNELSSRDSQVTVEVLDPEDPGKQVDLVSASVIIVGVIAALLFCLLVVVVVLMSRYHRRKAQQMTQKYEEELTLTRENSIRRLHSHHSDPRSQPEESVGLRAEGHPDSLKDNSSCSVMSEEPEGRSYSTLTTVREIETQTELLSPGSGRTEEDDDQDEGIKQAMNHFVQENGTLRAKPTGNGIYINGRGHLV

T2: 大鼠结合素-4 (rat Nectin-4) (rat, UniProt Q8R007 31-508 (mouse entry))
T2 construct: Transiently expressed on 293T cells; also called NP_001102546.1
T2 chain: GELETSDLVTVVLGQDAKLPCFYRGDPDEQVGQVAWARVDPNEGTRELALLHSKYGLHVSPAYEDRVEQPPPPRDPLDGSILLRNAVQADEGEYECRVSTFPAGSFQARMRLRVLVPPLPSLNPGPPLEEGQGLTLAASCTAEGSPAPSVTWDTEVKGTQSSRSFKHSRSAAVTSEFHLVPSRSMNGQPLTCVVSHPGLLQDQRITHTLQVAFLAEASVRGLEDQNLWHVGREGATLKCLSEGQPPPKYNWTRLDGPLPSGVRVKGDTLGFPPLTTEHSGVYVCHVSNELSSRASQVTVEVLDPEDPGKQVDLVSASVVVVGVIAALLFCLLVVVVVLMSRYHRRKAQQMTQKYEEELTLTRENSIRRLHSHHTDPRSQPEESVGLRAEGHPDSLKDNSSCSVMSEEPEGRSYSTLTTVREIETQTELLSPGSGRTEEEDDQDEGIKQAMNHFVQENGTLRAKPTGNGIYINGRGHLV

T3: 人重组结合素-4蛋白 (recombinant human Nectin-4, extracellular domain) (human, UniProt Q96NY8 32-349)
T3 construct: Protein coated on the ELISA plate; May be the same protein as the Nectin-4-His used in SPR; also called 重组结合素-4(细胞外结构域); 人结合素-4蛋白
T3 sequence: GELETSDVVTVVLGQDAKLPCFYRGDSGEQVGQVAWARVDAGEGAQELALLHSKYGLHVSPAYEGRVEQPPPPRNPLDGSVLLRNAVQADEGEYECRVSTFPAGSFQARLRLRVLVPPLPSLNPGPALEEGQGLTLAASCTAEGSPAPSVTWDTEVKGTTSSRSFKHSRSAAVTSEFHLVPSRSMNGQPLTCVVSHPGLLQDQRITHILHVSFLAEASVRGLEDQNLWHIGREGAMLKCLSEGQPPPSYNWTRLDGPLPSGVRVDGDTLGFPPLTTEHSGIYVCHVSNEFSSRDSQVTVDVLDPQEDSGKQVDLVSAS

T4: 人结合素-2 (recombinant human Nectin-2; ACROBiosystems PV2-H52E2) (human, UniProt Q92692 32-360)
T4 construct: extracellular domain
T4 sequence (looked up): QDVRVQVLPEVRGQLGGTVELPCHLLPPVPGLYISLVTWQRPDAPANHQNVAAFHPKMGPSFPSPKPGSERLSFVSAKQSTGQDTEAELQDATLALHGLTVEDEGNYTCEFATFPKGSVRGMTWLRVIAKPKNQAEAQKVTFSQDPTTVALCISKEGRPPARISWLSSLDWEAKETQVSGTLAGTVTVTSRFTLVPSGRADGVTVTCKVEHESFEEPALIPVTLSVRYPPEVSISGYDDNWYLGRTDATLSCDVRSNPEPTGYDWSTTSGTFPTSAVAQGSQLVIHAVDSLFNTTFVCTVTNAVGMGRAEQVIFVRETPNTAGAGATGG

T5: 重组人结合素4-His蛋白 (recombinant human Nectin-4-His) (human, UniProt Q96NY8 32-349)
T5 construct: Analyte in SPR; also called 人重组结合素-4; not shown: His tag
T5 sequence: T3 sequence

T6: 人结合素-4变体 ΔV结构域 (human Nectin-4 lacking amino acids 32-147) (human, UniProt Q96NY8 148-510)
T6 construct: Transiently expressed on 293T cells; also called 缺少Ig样V型结构域的变体
T6 sequence: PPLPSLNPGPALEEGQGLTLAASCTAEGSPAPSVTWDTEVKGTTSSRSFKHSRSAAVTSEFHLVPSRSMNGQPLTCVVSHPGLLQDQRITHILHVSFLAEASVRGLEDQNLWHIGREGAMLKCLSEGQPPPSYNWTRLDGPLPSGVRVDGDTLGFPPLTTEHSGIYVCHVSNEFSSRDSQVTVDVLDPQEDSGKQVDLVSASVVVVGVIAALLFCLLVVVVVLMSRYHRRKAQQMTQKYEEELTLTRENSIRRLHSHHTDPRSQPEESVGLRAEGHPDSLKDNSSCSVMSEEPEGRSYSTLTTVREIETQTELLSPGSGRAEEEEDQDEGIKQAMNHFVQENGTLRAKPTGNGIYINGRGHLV

T7: 食蟹猴结合素-4 (cynomolgus Nectin-4) (cynomolgus monkey, UniProt Q96NY8 32-510 (human entry))
T7 construct: Transiently expressed on 293T cells; also called XP_005541277.1
T7 chain: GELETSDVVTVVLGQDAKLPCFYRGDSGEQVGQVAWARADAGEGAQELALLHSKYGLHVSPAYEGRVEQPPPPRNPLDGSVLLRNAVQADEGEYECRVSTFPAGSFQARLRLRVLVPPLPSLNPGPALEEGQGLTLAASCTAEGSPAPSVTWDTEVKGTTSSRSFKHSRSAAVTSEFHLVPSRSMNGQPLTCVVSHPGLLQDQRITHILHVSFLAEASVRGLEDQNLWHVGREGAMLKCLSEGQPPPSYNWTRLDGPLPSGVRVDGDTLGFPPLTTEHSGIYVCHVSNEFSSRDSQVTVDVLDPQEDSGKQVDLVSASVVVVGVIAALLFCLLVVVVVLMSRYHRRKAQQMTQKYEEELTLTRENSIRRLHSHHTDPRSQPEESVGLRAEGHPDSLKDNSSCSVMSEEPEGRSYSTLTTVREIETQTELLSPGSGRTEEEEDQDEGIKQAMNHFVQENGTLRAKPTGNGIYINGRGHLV

B1: N4_mAb 5 (antibody, V domains shown)
VH: EVQLQQSGPDLVKPGASVKISCKASGYSFTGHYMHWVKQSHGKSLEWIGRVNPNNGGSSYNQKFKDKAILTVDKSSTTAYMELRSLTSEDSAVYYCARDPLGGSYGFAYWGQGTLVTVSA
VL: DIVLTQSPASLAVSLGQRATISCRASQSVTTSSYSYMHWYQQKPGQPPKLLIKYASNLESGVPARFSGSGSGTDFTLNIHPVEEEDTATYYCQHSWEIPYTFGGGTKLEMK
B2: N4_mAb 4 (antibody, V domains shown)
VH: DVQLQESGPDLVKPSQSLSLTCTVTGYSITSAYNWHWIRQFPGNKLEWMGYIHYSGRTNYNPSLKSRISITRDTSKNQFFLQLNSLTTEDTATYYCARWITTATGWYLDVWGAGTTVTVSS
VL: not shown
B3: N4_mAb 3 (antibody, V domains shown)
VH: EVQLQQSGAELVKPGASVKLSCTVSGFNIKDTYMHWVKQRPEQGLEWIGRIDPANGNTKYDPKFQGKATIIADKASNTAYLQLSSLTSEDAAVYYCAHYYGSSYFAMDCWGQGTSVTVSS
VL: DIVMTQSHKFMSTSVGDRVSITCKASQDVSTAVAWYQQKPGQSPKLLIYWASTRHTGVPDRFTGSGSGTDYTLTISSVQTEDLALYYCQQHYSTPLTFGAGTKLELK
B4: N4_mAb 6 (antibody, V domains shown)
VH: QVQLQQSGPELVKPGASVRISCKASGYTFTTYYIHWVKQRPGQGLEWIGWIYPGNVNTKYTENFKDKATLTADKSSSTAYMQLSSLTSEDSAVYFCARGLYYFDFWGQGTTLTVSS
VL: SIVMTQTPKFLLVSAGDRVTITCKASQSVNNDVAWYQQKPGQSPKLLIYYASNRDTGVPDRFTGSGFGTDFTFTISSVQAEDLAVYFCQQDYSSPYTFGGGTKLEIK
notes: Murine variable regions
B5: N4_mAb 7 (antibody, V domains shown)
VH: QVQLQQSGPELVKPGASVKMSCKASGYTFTTYYIHWVKQRPGQGLEWIGWIYPGNAGIKSNEKFKGKTTLTADKSSSTAYMLLSSLTSEDSAIYFCARGVYFFDYWGQGTTLTVSS
VL: B4 VL with A34S, Y36F, D55Y, T63S, F67Y, S76T, S77T
notes: Murine variable regions
B6: N4_mAb 8 (antibody, V domains shown)
VH: B4 VH with E10V, T31S, T61N, K65R, A79S, L100I, F105Y
VL: B4 VL with S1I, Q38E, F67Y, S77T, Q89H, Y96F, G100S
notes: Murine variable regions
B7: N4_mAb 2 (antibody, V domains shown)
VH: QVQLKQSGPNLVQPSQSLSITCTVSGFSLTTYGAHWVRQSPGKGLEWLGVIWRGGSTDYNAAFMSRLSITKDNSKSQVFFKMNSLQADDTAIYYCAKIGYDGYAMDNWGQGTSVTVSS
VL: DFQVTQSPASLSASVGETVTITCRTSENIHNYLAWYQQKQGKSPQLLVYNAKTLADGVPSRFSGSGSGTQYSLKINSLQPEDFGTYYCQHFWSSPWTFGGGTKLEIK
B8: N4_mAb 1 (antibody, V domains shown)
VH: QVQLKQSGPGLVQPSQSLSITCTVSGFSLTNYGVNWVRQPPGKGLEWLGVIWSGGSTDYNAAFISRLSISKDISKSQVFFKMNSLQADDTAKYYCAREGYDGYAMDYWGQGTSVTVSS
VL: DIQMTQSPASLSVSVGETVTITCRASENIFSSLAWYQQKQGKSPQLLVYGATNLADGVPSRFSGSGSGTQYSLKINSLQSEDFGTYWCQHFWGNPWTFGGGTKLEIK

What follows are binders tested against T1, 小鼠结合素-4 (mouse Nectin-4) (assay: flow cytometry on transiently transfected 293T cells; + = EC50 25nM to 133nM).
Work on B1 yielded an EC50 of 25 to 133 nM.

Biological target: T2, 大鼠结合素-4 (rat Nectin-4)
Assay: as above
For B2, the EC50 was 25 to 133 nM.
Work on B3 yielded an EC50 of 25 to 133 nM.

Each binder was assayed against T3, 人重组结合素-4蛋白 (recombinant human Nectin-4, …) (assay: ELISA, recombinant human Nectin-4 coated on plate).
B4 was tested, and the EC50 was 0.03 nM.
With B5 the EC50 was 0.04 nM.
In the case of B6, the EC50 is reported as 0.14 nM.

What follows are binders tested against T1, 小鼠结合素-4 (mouse Nectin-4) (assay: flow cytometry on transiently transfected 293T cells; ++ = EC50 5nM to 25nM).
B7 gave an EC50 of 5 to 25 nM.
B4 showed an EC50 of 5 to 25 nM.
With B5 the EC50 was 5 to 25 nM.
With B6 the EC50 was 5 to 25 nM.

Biological target: T2, 大鼠结合素-4 (rat Nectin-4)
Assay: as above
Binder B7 has an EC50 of 5 to 25 nM.

Each binder was assayed against T4, 人结合素-2 (recombinant human Nectin-2; …) (assay: ELISA or Gator binding assay).
B4: no binding.
B5: no binding.
B6: no binding.

The binders below were run against T5, 重组人结合素4-His蛋白 (recombinant human …) (assay: SPR (BIAcore 3000), antibody captured by anti-human IgG on CM5, Nectin-4-His as analyte, 1:1 binding with mass transfer).
B4 was tested, and the Kd was 0.392 nM.
Binder B5 has a Kd of 0.39 nM.
B6 showed a Kd of 0.375 nM.

These binders were tested against T6, 人结合素-4变体 ΔV结构域 (human Nectin-4 lacking …) (assay: flow cytometry on transiently transfected 293T cells).
B4: no binding (tested: 最高测试的抗体浓度(133nM)).
B5: no binding (tested: 最高测试的抗体浓度(133nM)).
B6: no binding (tested: 最高测试的抗体浓度(133nM)).

Biological target: T2, 大鼠结合素-4 (rat Nectin-4)
Assay: flow cytometry on transiently transfected 293T cells; +++ = EC50 below 5nM
B1 gave an EC50 of less than 5 nM.
B4 gave an EC50 of less than 5 nM.
B5 gave an EC50 of less than 5 nM.
Work on B6 yielded an EC50 of less than 5 nM.

Biological target: T7, 食蟹猴结合素-4 (cynomolgus Nectin-4)
Assay: as above
In the case of B2, the EC50 is reported as less than 5 nM.
B7 showed an EC50 of less than 5 nM.
B1 showed an EC50 of less than 5 nM.
With B4 the EC50 was less than 5 nM.
Binder B5 has an EC50 of less than 5 nM.
B6 was tested, and the EC50 was less than 5 nM.
With B8 the EC50 was less than 5 nM.
In the case of B3, the EC50 is reported as less than 5 nM.

— patent CN116507641A (XINSHI BIOPHARMACEUTICAL CO LTD, dated 2023)
